This note sets out measurements from publication doi:10.1101/2024.07.10.601956.

In this experiment the target is Synthetic Mtln protein (UniProt Q8NCU8). The experiment can be described thus: mass photometry.

The stoichiometry N is the number of molecules, sites or subunits per partner or assembly. “Synthetic Mtln protein (from UniProt Q8NCU8 1-56) (natural protein)”: the stoichiometry N amounted to 6.
